# According to patent publication US12582683B2, “Prostate neoantigens and their uses” (Jansen Biotech, Inc., priority 2019, dated 2026):
# B1: WTPIPVLTRWPLPHPPPWRRATSCRMARSSPSATSGSSVRRRCSSLPSWVWNLAASTRPRSTPS (peptide, listed as Homo sapiens)
# chain: WTPIPVLTRWPLPHPPPWRRATSCRMARSSPSATSGSSVRRRCSSLPSWVWNLAASTRPRSTPS
# notes: TMEM222-LOC644961
# B2: VFFKRAAEGFFRMNKLKESSDTNPKPYCMAAPMGLTENNRNRKKSYRETNLKAVSWPLNHT [P76] (peptide, listed as Homo sapiens)
# chain: VFFKRAAEGFFRMNKLKESSDTNPKPYCMAAPMGLTENNRNRKKSYRETNLKAVSWPLNHT
# notes: AR-V3
# Key:
# CD8+ and CD4+ T cells = experiment: Endogenous autologous normal donor restimulation assay (Ad5-transduced dendritic cells plus autologous Pan-T cells); format: cell-based, human; conditions: Table 27, restimulation with overlapping 15-mer peptide pools, highest frequency across sixteen normal donors
# Procedure: (5% CO2). The following day, DC cells were counted and plated in a 96 well round bottom microplate at a concentration of 30,000 viable cells per well. […] (5% CO2). […] Autologous CD3+ Pan-T cells isolated from human normal PBMCs were thawed using media.
# Plates were incubated at 37° C. […] (5% CO2).
# The cells were washed with PBS and stained with Live/Dead Fixable Aqua Dead Cell stain (Thermo-Fisher).
# HLA-B*07:02 = HLA-B*07:02 (Homo sapiens, UniProt P01889); experiment: In vitro binding of neoantigens to class I MHC (UV peptide exchange, HLA class I ELISA); conditions: 100% = same binding affinity as positive control peptide
# Procedure: (§1) In Vitro Binding of Neoantigens to Class I MHC
# (§2) The 9 mer peptides identified by bioinformatics analysis were analyzed for their binding propensities to 6 common HLA class I alleles (HLA-A*01:01, A*02:01, A*03:01, A*24:02, B*07:02, B*08:01). The principle of the method is briefly described below and consists of two parts, one involving exchange of peptide with a positive control induced by Ultraviolet (UV) radiation, and the second is an enzyme immunoassay to detect stable HLA-peptide and empty HLA complexes.
# (§3) HLA-bound peptides are critical for the stability of the HLA complex.
# (§4) The exchange efficiency between the peptide of interest and Pos was analyzed using an HLA class I ELISA. The combined technologies allowed the identification of ligands for an HLA molecule of interest which are potentially immunogenic.
# (§5) The UV control represented UV-irradiation of conditional HLA class I complex in the absence of a rescue peptide. […] To this end streptavidin was bound onto polystyrene microtiter wells. After washing and blocking, HLA complex present in exchange reaction mixtures or ELISA controls was captured by the streptavidin on the microtiter plate via its biotinylated heavy chain. Non-bound material was removed by washing. Subsequently, horseradish peroxidase (HRP)-conjugated antibody to human B2M was added. […] In the latter case B2M was removed during the washing step. After removal of non-bound HRP conjugate by washing, a substrate solution was added to the wells. A coloured product formed in proportion to the amount of intact HLA complex present in the samples. After the reaction was terminated by the addition of a stop solution, absorbance was measured in a microtiter plate reader. […] Suboptimal HLA binding of peptides with a moderate to low affinity for HLA class I molecules can also be detected by this ELISA technique (Rodenko, B et al. (2006) Nature Protocols 1: 1120-32).
# (§6) Binding of select neoepitopes to HLA-A*01:01, HLA-A* 02:01, HLA-A* 03:01, HLA-A*24:02, HLA-1B*07:02 and HLA-1B*08:01 was evaluated using the assay described in Example 1. […] As a criterion for further evaluation, peptides with an exchange rate of at least 10% with the corresponding Pos peptide for at least one of the 6 HLA alleles that we considered for further evaluation. […] Higher percentages correspond to stronger binding to the HLA allele.
# HLA-A*02:01 = HLA-A*02:01 (Homo sapiens, UniProt P04439, D140Y/D185E/D98H/E176V/E277Q/G131W/G231S/I119V/I121R/I166T/I218V/L300P/L318F/N151K/N90K/P208A/P217A/Q86G/Q94H/R138H/R169H/T345S); experiment: as above; conditions: 100% = same binding affinity as positive control peptide
# Procedure: as §1, §2, §3, §4, §5, §6
# HLA-A*01:01 = HLA-A*01:01 (Homo sapiens, UniProt P04439, A114D/A174V/A182V/D101N/D185E/E176A/E190D/L180R/Q94H/R68K/S129P/T187R/V100A/V91M/W191G); experiment: as above; conditions: 100% = same binding affinity as positive control peptide
# Procedure: as §1, §2, §3, §4, §5, §6
# HLA-A*03:01 = HLA-A*03:01 (Homo sapiens, UniProt P04439); experiment: as above; conditions: 100% = same binding affinity as positive control peptide
# Procedure: as §1, §2, §3, §4, §5, §6
# HLA-A*24:02 = HLA-A*24:02 (Homo sapiens, UniProt P04439, D101N/D140Y/D185E/E176V/E190D/F33S/G103R/G107R/I119L/I121M/I306V/K335N/L105A/L180Q/L300P/N151K/N90K/Q86E/Q94H/R106L/R138H/R89G/T104I/T345S/V100E/W191G/Y123F); experiment: as above; conditions: 100% = same binding affinity as positive control peptide
# Procedure: as §1, §2, §3, §4, §5, §6
# [1] = test system: CD8+ T cells in PBMCs from patients with metastatic castrate-resistant prostate cancer; experiment: Patient PBMC restimulation assay (in vitro immunogenicity of neoantigens); format: cell-based, human; set-up: Maximum frequency of TNFα+IFNγ+CD8+ T cells: unit not given here; conditions: for Maximum fold change over: fold change over negative control, highest across the PBMC donors evaluated, 9 mer peptide; for Maximum frequency of TNFα+IFNγ+CD8+ T cells: greatest frequency among all tested PBMC donors, negative control 0.011-0.8
# Procedure: In Vitro Immunogenicity Assessment of Neoantigens (“Patient PBMC Restimulation Assay”)
# PBMCs from human patients with metastatic castrate-resistant prostate cancer were thawed using media (RPMI 1640 supplemented with Glutamax, 10% HI FBS, and 1× Sodium Pyruvate). Cells were counted and plated in a 96 well round bottom microplate at a concentration of 250,000 viable cells per well. Lyophilized peptides were solubilized in 100% DMSO and diluted in media to 10 μg/mL. Neoantigen peptides were added in equal volume to PBMCs for a final concentration of 5 μg/mL. CEF Peptide Pool “Plus” (Cellular Technologies, Ltd.) was utilized as a positive control and DMSO at the same final concentration as the experimental peptides was utilized as a negative control. Human IL-15 (Peprotech) was added to all wells at final concentration of 10 ng/mL.
# Plates were incubated at 37° C. (5% CO2) for a total of 13 days. Media was refreshed every 2 days with IL-15 (10 ng/mL final concentration) and IL-2 (R&D systems, 10 IU/mL final concentration). On day 12, PBMCs were re-stimulated with identical experimental peptides or controls, at same concentration as peptide stimulation on Day 1. After 1-hour incubation, protein Inhibitor Cocktail (eBioscience) was added to every well and plate was incubated overnight.
# On day 13, cells were stained for intracellular flow cytometry analysis. The cells were washed with PBS and stained with Live/Dead Fixable Aqua Dead Cell stain (Thermo-Fisher). Following the live/dead stain, cells were blocked using Biotin-Free Fe Receptor Blocker (Accurate Chemical & Scientific Corp). Extracellular cellular flow panel (1 μL/antibody per well in 50 μL) consisted of CD3 PerCP-Cy5.5 (Biolegend), CD4 BV421 (Biolegend), and CD8 APC-Cy7 (Biolegend). After extracellular staining, cells were fixed using Foxp3/Transcription Factor Staining Buffer Set (eBioscience) and stained for intracellular proteins (1:50 dilution) using TNFα FITC (R&D Systems) and IFNγ BV785 (Biolegend). Cells were washed and resuspended in stain buffer and analyzed using a BD Celesta flow cytometer.
# Flow cytometry cell staining analysis was completed using FlowJo v10. Cells were gated on live, singlet, CD3+ cells. The CD8+ T cells were analyzed for TNFα/IFNγ expression and the frequency of double positive TNFα/IFNγ CD8+ T cells was recorded. Responses were assessed to be positive when the frequency of double positive TNFα/IFNγ CD8+ T cells due to stimulation with an experimental peptide was increased greater than or equal to 2-fold over the DMSO only negative control for that patient. Peptides were analyzed in 1 to 7 patient samples.
# The 9 mer fragments shown in Table 13 were assessed for their ability to activate T cells using the Patient PBMC restimulation assay described in Example 1 using TNFα and IFNγ production by CD8^+ T cells as a readout. Self-antigens shown in Table 15 were also used in the assays. […] PBMCs from ten patients were evaluated.
Molecule,Maximum Frequency of TNFα/IFNγ Double Positive CD4+30 T cells (CD8+ and CD4+ T cells),"Exchange rate with Pos peptide, HLA-B*07:02 (HLA-B*07:02) [%]","Exchange rate with Pos peptide, HLA-A*02:01 (HLA-A*02:01) [%]","Exchange rate with Pos peptide, HLA-A*01:01 (HLA-A*01:01) [%]","Exchange rate with Pos peptide, HLA-A*03:01 (HLA-A*03:01) [%]","Exchange rate with Pos peptide, HLA-A*24:02 (HLA-A*24:02) [%]",Maximum fold change over [1],Maximum frequency of TNFα+IFNγ+CD8+ T cells [1],"Immunogenic ([1]; patient PBMC restimulation, CD8+ T cells)"
"DGHSYTSKVNCLLLQDGFHGCVSITGAAGRRNLSIFLFLMLCKLEFHAC (listed as Homo sapiens) [AS55, splice variant SPOCK1]",0.063,,,,,,,,
"WKFEMSYTVGGPPPHVHARPRHWKTDR (listed as Homo sapiens) [AS18, splice variant NWD1]",0.046,,,,,,,,
"YEAGMTLGEKFRVGNCKHLKMTRP (listed as Homo sapiens) [Neoantigen P82, AR-V7]",,12.9,6.3,1.5,58.1,−0.1,3.46,0.970,
"YEAGMTLGGKILFFLFLLLPLSPFSLIF (listed as Homo sapiens) [Neoantigen P87, AR-Intron]",0.079,5,64,1.1,2.4,0.2,3.24,0.120,
B1,,91.3,8.2,5.2,4.1,0.1,5.00,0.480,
B2,,91.5,85.9,0.1,6,−0.5,2.30,0.170,Yes
